Measured values as given in PMC8140153, “Fluorescence Fluctuation Spectroscopy enables quantification of potassium channel subunit dynamics and stoichiometry” (Scientific Reports, 2021).

Columns and labels:
[1] = target: T1, KCNQ1-mCherry (human KCNQ1, C-terminally mCherry-tagged) (human, UniProt P51787 1-676); assay: Number and Brightness (N&B) analysis of TIRF image sequences; living CHO cells co-transfected with KCNE2-mEGFP and KCNQ1-mCherry; cells with fast micro-diffusion, E2f(Q1) (Dmicro > 0.02 µm^2 s^-1); 37 °C, 5% CO2; GAP-mEGFP as monomeric reference; conditions: partners not purified
T1 construct: KCNQ1 (Kv7.1) alpha subunit, human; cDNA in a CMV-based expression construct; also called Q1 in E2(Q1); source: CHO cells, co-transfected (Lipofectamine 3000), in living cells; not shown: mCherry, C-terminal, kept
T1 sequence (looked up): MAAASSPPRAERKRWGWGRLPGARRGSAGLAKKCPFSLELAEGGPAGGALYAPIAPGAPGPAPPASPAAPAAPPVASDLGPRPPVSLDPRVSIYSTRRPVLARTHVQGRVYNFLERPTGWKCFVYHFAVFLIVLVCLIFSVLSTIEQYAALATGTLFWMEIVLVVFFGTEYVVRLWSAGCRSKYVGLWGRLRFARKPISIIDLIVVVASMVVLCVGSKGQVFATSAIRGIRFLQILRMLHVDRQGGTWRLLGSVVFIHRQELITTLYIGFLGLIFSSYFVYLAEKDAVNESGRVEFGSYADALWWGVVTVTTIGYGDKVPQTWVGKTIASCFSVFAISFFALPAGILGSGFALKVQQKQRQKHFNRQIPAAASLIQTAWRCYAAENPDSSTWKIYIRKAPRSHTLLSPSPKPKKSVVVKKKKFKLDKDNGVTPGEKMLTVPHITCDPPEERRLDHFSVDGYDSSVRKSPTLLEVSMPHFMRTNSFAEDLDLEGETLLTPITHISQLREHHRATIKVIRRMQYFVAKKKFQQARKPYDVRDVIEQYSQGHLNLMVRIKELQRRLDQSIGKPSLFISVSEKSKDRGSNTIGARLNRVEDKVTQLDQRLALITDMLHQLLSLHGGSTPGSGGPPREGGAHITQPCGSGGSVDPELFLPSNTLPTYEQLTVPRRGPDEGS

[2] = target: the molecule itself; assay: Number and Brightness (N&B) analysis of TIRF image sequences; living CHO cells transfected with one mEGFP-tagged subunit alone; plasma membrane, 37 °C, 5% CO2; GAP-mEGFP as monomeric reference; oligomerization state corrected for protein maturation and misfolding

B1: KCNE2-mEGFP (human KCNE2, C-terminally mEGFP-tagged) (natural protein, UniProt Q9Y6J6 1-123, looked up)
chain: MSTLSNFTQTLEDVFRRIFITYMDNWRQNTTAEQEALQAKVDAENFYYVILYLMVMIGMFSFIIVAILVSTVKSKRREHSNDPYHQYIVEDWQEKYKSQILNLEESKATIHENIGAAGFKMSP
notes: KCNE2, human, single transmembrane segment beta subunit; cDNA in a CMV-based expression construct; also called KCNE2 subunit; E2(Q1), E2f(Q1), E2s(Q1) when co-expressed with KCNQ1-mCherry; source: CHO cells, transfected (Lipofectamine 3000), in living cells; not shown: mEGFP, C-terminal, kept
stoichiometry N [1]: 4 E2 subunits per KCNQ1-KCNE2 complex | stoichiometry N [2]: 2
